Measured values reported in PMC10625714 (Nature chemical biology, 2023).

Molecular target: the molecule itself
Test: cryo-EM structure

B1: nuclease-deficient AsCas12f (AsCas12f-D225A) (enzyme, Acidibacillus sulfuroxidans)
chain: MIKVYRYEIVKPLDLDWKEFGTILRQLQQETRFALNKATQLAWEWMGFSSDYKDNHGEYPKSKDILGYTNVHGYAYHTIKTKAYRLNSGNLSQTIKRATDRFKAYQKEILRGDMSIPSYKRDIPLDLIKENISVNRMNHGDYIASLSLLSNPAKQEMNVKRKISVIIIVRGAGKTIMDRILSGEYQVSASQIIHDDRKNKWYLNISYDFEPQTRVLDLNKIMGIALGVAVAVYMAFQHTPARYKLEGGEIENFRRQVESRRISMLRQGKYAGGARGGHGRDKRIKPIEQLRDKIANFRDTTNHRYSRYIVDMAIKEGCGTIQMEDLTNIRDIGSRFLQNWTYYDLQQKIIYKAEEAGIKVIKIDPQYTSQRCSECGNIDSGNRIGQAIFKCRACGYEANADYNAARNIAIPNIDKIIAESIK
  stoichiometry N: 2
